Measured values taken from the supplement of paper PMC12042874.
± gives the uncertainty stated by the source.

Experiment: amyloid nucleation score (Sup35N fusion, yeast selection) (log enrichment); library NNK2; higher = more nucleation; inactive = no reads after selection
Summary of the method: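 The nucleation score is a DiMSum log enrichment of output over input reads, centred on the mode score of non-aggregating sequences. Sequences under 100 input reads were excluded, and reads came from Illumina sequencing of plasmid inserts. Psi-negative yeast expressing Sup35N fused to peptides of 20 random codons were induced with 100 μM copper sulfate for 24 hours and grown 7 days at 30°C on medium lacking adenine and uracil. Random libraries had three technical output replicates.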

IVNSKFKHAGVHPFDSL
amyloid nucleation score: -0.125 ± 0.79

LGGSSENYGVDCNYYPEMWG
amyloid nucleation score: -1.24 ± 0.54

VVNSGICSYRCFTVGQVTYK
amyloid nucleation score: -0.553 ± 0.55

MSKEVVSSGYVIHIRRQRGG
amyloid nucleation score: 0.82 ± 0.57

TVFDRNMDTGIMCIVMSWDN
amyloid nucleation score: -0.318 ± 0.48

FRCLTSSANISISTVWYVGH
amyloid nucleation score: 4.61 ± 0.09

ANFQIFDLLME
amyloid nucleation score: -0.061 ± 0.43

ITEYSYWSGIPSSMVSPIKH
amyloid nucleation score: -0.459 ± 0.28

FRWCKRMGLCNLVNDLGCDW
amyloid nucleation score: 0.446 ± 0.64

SVTYWGWPTILAVRKCLFNS
amyloid nucleation score: 2.5 ± 0.091

VRLEPSHRVCRRVRLTSILR
amyloid nucleation score: inactive

VEWKRRNRVRVSRCELWFCF
amyloid nucleation score: 3.93 ± 0.087

HSLSFLMNSFMRYRSCLVVA
amyloid nucleation score: -0.119 ± 0.26

KRGRDV
amyloid nucleation score: -0.292 ± 0.49

LYFSNPWFMIKSRDMFVCIG
amyloid nucleation score: 0.51 ± 0.18

SYVVCSVIGYYDYLRSRPSC
amyloid nucleation score: 9.631 ± 0.036

FQSVLCYE
amyloid nucleation score: -0.708 ± 0.54

IYWMIIFWGFE
amyloid nucleation score: -0.089 ± 1.1

TFSVQAVNLFSIWVLSGPGD
amyloid nucleation score: 8.02 ± 0.034

YLRRL
amyloid nucleation score: -0.775 ± 0.61

CMSAIFLPMIEF
amyloid nucleation score: -0.714 ± 0.44

FHARPDSNPEENMVDSGI
amyloid nucleation score: inactive

SDLTIVVSMLGFIPCSCHAF
amyloid nucleation score: 6.328 ± 0.05

CTWTYE
amyloid nucleation score: 5.92 ± 0.077

VNPCVWIRIYWRS
amyloid nucleation score: -0.014 ± 0.65

PIRPVLWVQFVKTQYGPMIP
amyloid nucleation score: 4.68 ± 0.098

LWFKCGHSIQGLVRVTESGS
amyloid nucleation score: -0.15 ± 0.27

RSEDGRGGSKGQIIRVVMNW
amyloid nucleation score: 4.76 ± 0.062

HWTYTFRLNSSSSIYQNCSD
amyloid nucleation score: -0.71 ± 1

IQLIRHCSSLNRTYQVSVSR
amyloid nucleation score: 0.364 ± 0.3

AIKESRCDIVIRRKWSSLKT
amyloid nucleation score: -0.02 ± 1.1

PQLSKVLGWNYRCVNLSIW
amyloid nucleation score: 4.93 ± 0.086

MVDTTRSTCISNSISWCAID
amyloid nucleation score: 5.28 ± 0.062

QLALLMFMQTFNSYS
amyloid nucleation score: 7.43 ± 0.059

WNMMPRASEQFYYRL
amyloid nucleation score: inactive

MASVMLQCHGCPLGKGTARA
amyloid nucleation score: 0.879 ± 0.41

PILEIYVCGSLMYIFNITIV
amyloid nucleation score: 6.691 ± 0.033

KVIMVLFRFDMSIWGWQTDI
amyloid nucleation score: -0.628 ± 0.76

LGITITARAIIE
amyloid nucleation score: -0.898 ± 1.1

ALWFLLKQSGARYLDLAIPG
amyloid nucleation score: -0.06 ± 1.1

ELSLTCNGDQLIGMKGGADK
amyloid nucleation score: 0.008 ± 0.38

RQMDHYQRGFLIIYCQLTDK
amyloid nucleation score: inactive

TQLASIQPSVPCYIVYTVGL
amyloid nucleation score: 3.01 ± 0.085

GGGNCKKGYGCDVDCYESEG
amyloid nucleation score: -0.735 ± 0.56

LLLNLMLVHTSMTFVRIKLR
amyloid nucleation score: 3.13 ± 0.12

FLLHVCVADKVGVTSIHTCC
amyloid nucleation score: -0.181 ± 0.35

LRLVYISTMIQMPFGRRVF
amyloid nucleation score: 3.73 ± 0.04

YILRSANLM
amyloid nucleation score: -0.406 ± 0.3

FVYKTGYVSSVCYGIVVVVD
amyloid nucleation score: -0.826 ± 0.5

MRFRLCNYLLRRVWDLNRGA
amyloid nucleation score: -1.18 ± 0.39

TLSVTEGYSNLTSMWYGCKR
amyloid nucleation score: 3.23 ± 0.15

LVSNHASYFIQI
amyloid nucleation score: 7.467 ± 0.035

TTTQKGCGVYVAREVSWGLG
amyloid nucleation score: 2.56 ± 0.093

WPYRMMR
amyloid nucleation score: 0.554 ± 0.74

FVFTLIWGHSSKLSESVSFL
amyloid nucleation score: inactive

AFPTKCNVRSMSMHRLLLLC
amyloid nucleation score: inactive

NLKLPNRSSWVLPVQYRPFD
amyloid nucleation score: 3.28 ± 0.053

DTVNWCDSGVP
amyloid nucleation score: -0.023 ± 0.65

DRLVGVTLYSTVYSDYSSSG
amyloid nucleation score: -0.768 ± 1.1

CGRTDNWGNDRNASRRHGGL
amyloid nucleation score: 0.694 ± 0.24

NELKY
amyloid nucleation score: 0.02 ± 0.56

YSSCLCLQCTRMQTPMVQFL
amyloid nucleation score: 0.032 ± 0.53

FIICTEWPSDLLNWSSVANW
amyloid nucleation score: -0.658 ± 1

VRFHVWDKGHRMI
amyloid nucleation score: 1.47 ± 0.18

DFSFVANCSDYLLNILFKGE
amyloid nucleation score: -0.066 ± 0.74

YSFFCSMILYPIHDNVGWSF
amyloid nucleation score: 4.86 ± 0.088

VELSHFCTGRNSYSRRWISM
amyloid nucleation score: 0.422 ± 0.65

YMCCFYAVGFPFDYKLGFVR
amyloid nucleation score: 4.35 ± 0.068

KRDFPISATSRLCVAFFFIY
amyloid nucleation score: -0.975 ± 0.38

GDFSFCTHLLSYNLRGWPVV
amyloid nucleation score: 0.192 ± 0.74

LCPYYNLWS
amyloid nucleation score: inactive

AYCRGFYYIIALVSSPEQKR
amyloid nucleation score: 0.175 ± 0.34

FNHYQ
amyloid nucleation score: 0.419 ± 0.36

WSKVMCQWFSDIYSVTNFGC
amyloid nucleation score: 2.76 ± 0.085

LGGTY
amyloid nucleation score: -0.449 ± 0.64

FQMYTISLRRLVNNKSYARV
amyloid nucleation score: 0.319 ± 0.8

VRGRVAHRRMGSTFVISAES
amyloid nucleation score: 0.266 ± 0.74

QIHGVTFFSQRTGTCASEP
amyloid nucleation score: -0.875 ± 0.44

YQAGWDEVGSLCLRVRNEKL
amyloid nucleation score: 4.38 ± 0.074

LNSHSITMLLNSVCGCQSWT
amyloid nucleation score: 9.201 ± 0.062

QFDTPNTT
amyloid nucleation score: -0.169 ± 0.54

AVSTMGIVSIVF
amyloid nucleation score: inactive

ENKPTRDLYSTTR
amyloid nucleation score: -1.19 ± 0.54

CMFFCYYLWMMRMVWSVTWS
amyloid nucleation score: -0.589 ± 0.53

KYTGMKYRPTVCLGVEVQLK
amyloid nucleation score: 3.83 ± 0.062
